Experimental data: US20040058366, “Novel clock gene bmal2” (published 2004)

Key:
[1] = target: T1, cBMAL2-cCLOCK heterodimer (Gallus gallus, UniProt Q8QGQ7;Q8QGQ6 Q8QGQ7:1-622,Q8QGQ6:1-875); assay: EMSA; two or three specific complexes; 7.5 mM MgCl2, 100 mM KCl, pH 7.6, 23 C; conditions: tags: TNT-T7 coupled transcription/translation; label: 32P; within a 39 bp EcoRI fragment excised from pCR2.1
T1 sequence 1: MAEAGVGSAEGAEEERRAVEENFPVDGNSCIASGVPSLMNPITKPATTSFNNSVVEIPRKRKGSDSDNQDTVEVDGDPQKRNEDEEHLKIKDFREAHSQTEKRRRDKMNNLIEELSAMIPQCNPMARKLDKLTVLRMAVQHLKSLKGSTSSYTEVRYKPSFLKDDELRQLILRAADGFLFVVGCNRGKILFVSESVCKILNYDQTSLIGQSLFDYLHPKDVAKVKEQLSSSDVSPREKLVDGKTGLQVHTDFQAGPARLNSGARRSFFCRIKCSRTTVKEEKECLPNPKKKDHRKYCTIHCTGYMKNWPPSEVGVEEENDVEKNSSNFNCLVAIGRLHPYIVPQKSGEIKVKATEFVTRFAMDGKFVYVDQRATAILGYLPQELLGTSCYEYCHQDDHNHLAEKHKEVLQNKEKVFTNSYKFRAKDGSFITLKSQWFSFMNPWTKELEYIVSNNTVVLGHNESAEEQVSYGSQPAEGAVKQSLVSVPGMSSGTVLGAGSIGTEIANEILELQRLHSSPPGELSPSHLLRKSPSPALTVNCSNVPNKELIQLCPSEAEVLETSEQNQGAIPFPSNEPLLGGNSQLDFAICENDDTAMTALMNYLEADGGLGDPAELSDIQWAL
T1 sequence 2: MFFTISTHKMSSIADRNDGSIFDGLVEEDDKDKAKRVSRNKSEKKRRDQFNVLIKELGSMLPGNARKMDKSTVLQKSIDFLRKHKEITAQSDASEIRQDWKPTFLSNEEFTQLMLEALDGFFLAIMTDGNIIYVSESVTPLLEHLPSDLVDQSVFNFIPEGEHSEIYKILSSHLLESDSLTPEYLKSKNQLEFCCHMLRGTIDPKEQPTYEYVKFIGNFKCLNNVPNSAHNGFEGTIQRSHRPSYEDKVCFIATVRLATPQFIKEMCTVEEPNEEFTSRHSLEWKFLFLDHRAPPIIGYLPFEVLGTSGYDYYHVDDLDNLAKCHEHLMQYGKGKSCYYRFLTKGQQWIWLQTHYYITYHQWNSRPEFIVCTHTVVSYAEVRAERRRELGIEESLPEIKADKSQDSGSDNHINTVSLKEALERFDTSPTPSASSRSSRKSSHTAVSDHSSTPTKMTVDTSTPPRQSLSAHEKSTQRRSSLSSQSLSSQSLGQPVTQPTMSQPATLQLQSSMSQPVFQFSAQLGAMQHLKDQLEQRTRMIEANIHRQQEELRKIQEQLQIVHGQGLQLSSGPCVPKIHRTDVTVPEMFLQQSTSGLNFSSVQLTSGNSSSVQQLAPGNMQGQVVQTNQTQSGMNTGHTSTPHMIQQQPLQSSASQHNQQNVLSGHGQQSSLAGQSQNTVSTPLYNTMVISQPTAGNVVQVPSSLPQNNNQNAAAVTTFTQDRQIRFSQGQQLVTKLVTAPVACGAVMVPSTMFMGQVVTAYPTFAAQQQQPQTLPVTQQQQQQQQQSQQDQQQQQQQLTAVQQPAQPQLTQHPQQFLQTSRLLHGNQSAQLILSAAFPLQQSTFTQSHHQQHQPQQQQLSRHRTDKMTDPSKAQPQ
Text: (§1) For preparation of the probe, oligonucleotides [cP2E1-S: 5′-GTGTCACACGTGAGGCTTA-3′ (Seq. ID No. 59) and cP2E1-AS: 5′-TAAGCCTCACGTGTGACAC-3′ (Seq. ID No. 60)] were synthesized that correspond to the E-box sequence and its flanking sequences within a putative promoter/enhancer region of cPer2 gene. These oligonucleotides synthesized were annealed together and subcloned into a pCR2.1 vector using TOPO-TA cloning kit (Invitrogen, Calif.), from which a 39 bp fragment was excised with a restriction enzyme EcoRI and used. The above-mentioned cBMAL1, cBMAL2 and cCLOCK were prepared by being transcribed and translated in vitro from an expression plasmid containing the cDNA of cBmal1, cBmal2 or cClock with the aid of TNT-T7 Quick Coupled Transcription/Translation System (Promega). […]
(§2) 5 μL each of the protein mixtures thus obtained (BMAL1+BMAL2, BMAL1+CLOCK, BMAL2+CLOCK) was added with 32 μL of buffer [25 mM Hepes-KOH (pH 7.6), 100 mM KCl, 0.1 mM EDTA, 10% (v/v) glycerol, 7.5 mM MgCl₂, 1 mM DTT and 1 μg denatured salmon sperm DNA] containing a ³²P-labeled probe (33 fmoles, 1.3×10⁵ cpm) andwas incubated for 20 min at 23° C. After the incubation, each mixture was separated by a 6% polyacrylamide gel electrophoresis and analyzed similarly as in Example 7 using a FLA2000 bioimage analyzer (FUJI PHOTO FILM). […]

[2] = target: cBMAL1-cCLOCK heterodimer (Gallus gallus, UniProt Q9I8T7;Q8QGQ6 Q9I8T7:1-633,Q8QGQ6:1-875); assay: as above; conditions: tags: TNT-T7 coupled transcription/translation; label: 32P; within a 39 bp EcoRI fragment excised from pCR2.1
Text: as §1, §2

cBMAL2 = target: T2, cBMAL2 (Gallus gallus, UniProt Q8QGQ7 SEQ:1-622); assay: EMSA; no specific band with cBMAL2 alone; conditions: label: 32P; within a 39 bp EcoRI fragment excised from pCR2.1
T2 sequence: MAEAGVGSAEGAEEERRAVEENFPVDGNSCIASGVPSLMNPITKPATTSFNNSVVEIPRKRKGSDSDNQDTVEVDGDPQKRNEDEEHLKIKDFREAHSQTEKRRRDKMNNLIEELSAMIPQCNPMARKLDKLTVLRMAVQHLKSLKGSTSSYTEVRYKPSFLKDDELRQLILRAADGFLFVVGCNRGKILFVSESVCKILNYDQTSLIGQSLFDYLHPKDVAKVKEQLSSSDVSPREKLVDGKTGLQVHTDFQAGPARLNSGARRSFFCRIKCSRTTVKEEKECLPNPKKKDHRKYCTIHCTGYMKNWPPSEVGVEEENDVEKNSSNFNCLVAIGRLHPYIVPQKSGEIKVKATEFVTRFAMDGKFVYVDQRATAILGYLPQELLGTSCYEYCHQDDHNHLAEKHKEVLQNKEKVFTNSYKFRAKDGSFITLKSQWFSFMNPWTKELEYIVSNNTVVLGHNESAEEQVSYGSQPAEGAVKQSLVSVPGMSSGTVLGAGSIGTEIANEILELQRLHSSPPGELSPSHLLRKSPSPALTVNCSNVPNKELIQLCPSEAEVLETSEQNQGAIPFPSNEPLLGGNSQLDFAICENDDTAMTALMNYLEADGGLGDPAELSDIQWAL
Text: as §1, §2

cCLOCK = target: T3, cCLOCK (Gallus gallus, UniProt Q8QGQ6 Q8QGQ6:1-875); assay: EMSA; no specific band with cCLOCK alone; conditions: label: 32P; within a 39 bp EcoRI fragment excised from pCR2.1
T3 sequence: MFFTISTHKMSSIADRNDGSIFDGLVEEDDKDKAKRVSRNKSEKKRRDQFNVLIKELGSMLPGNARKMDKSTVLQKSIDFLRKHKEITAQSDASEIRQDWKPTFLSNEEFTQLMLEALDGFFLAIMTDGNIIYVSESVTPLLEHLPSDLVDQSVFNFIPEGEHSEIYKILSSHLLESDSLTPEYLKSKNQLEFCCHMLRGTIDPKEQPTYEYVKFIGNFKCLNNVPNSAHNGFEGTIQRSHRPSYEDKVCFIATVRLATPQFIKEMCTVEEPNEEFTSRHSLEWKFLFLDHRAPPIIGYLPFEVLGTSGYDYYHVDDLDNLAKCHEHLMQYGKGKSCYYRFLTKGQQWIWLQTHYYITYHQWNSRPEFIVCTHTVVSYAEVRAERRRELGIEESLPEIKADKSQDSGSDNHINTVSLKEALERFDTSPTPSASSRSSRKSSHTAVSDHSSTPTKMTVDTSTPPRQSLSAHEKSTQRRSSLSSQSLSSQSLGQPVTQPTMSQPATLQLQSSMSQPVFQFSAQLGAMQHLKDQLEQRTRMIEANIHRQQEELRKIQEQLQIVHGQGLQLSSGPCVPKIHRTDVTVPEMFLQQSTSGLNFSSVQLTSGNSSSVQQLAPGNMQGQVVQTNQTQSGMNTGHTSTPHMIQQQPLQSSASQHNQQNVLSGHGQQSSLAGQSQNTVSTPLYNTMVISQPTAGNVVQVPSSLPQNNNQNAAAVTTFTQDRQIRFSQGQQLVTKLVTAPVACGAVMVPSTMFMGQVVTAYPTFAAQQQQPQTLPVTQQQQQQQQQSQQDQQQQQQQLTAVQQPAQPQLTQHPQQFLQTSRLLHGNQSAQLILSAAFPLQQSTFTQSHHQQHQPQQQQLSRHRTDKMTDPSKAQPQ
Text: as §1, §2

cBMAL1 = cBMAL1 (Gallus gallus, UniProt Q9I8T7 Q9I8T7:1-633); assay: EMSA; no specific band with cBMAL1 alone; conditions: label: 32P; within a 39 bp EcoRI fragment excised from pCR2.1
Text: as §1, §2

Chain of cBMAL1 (Q9I8T7 whole entry, the tested form may be a part, one chain of several): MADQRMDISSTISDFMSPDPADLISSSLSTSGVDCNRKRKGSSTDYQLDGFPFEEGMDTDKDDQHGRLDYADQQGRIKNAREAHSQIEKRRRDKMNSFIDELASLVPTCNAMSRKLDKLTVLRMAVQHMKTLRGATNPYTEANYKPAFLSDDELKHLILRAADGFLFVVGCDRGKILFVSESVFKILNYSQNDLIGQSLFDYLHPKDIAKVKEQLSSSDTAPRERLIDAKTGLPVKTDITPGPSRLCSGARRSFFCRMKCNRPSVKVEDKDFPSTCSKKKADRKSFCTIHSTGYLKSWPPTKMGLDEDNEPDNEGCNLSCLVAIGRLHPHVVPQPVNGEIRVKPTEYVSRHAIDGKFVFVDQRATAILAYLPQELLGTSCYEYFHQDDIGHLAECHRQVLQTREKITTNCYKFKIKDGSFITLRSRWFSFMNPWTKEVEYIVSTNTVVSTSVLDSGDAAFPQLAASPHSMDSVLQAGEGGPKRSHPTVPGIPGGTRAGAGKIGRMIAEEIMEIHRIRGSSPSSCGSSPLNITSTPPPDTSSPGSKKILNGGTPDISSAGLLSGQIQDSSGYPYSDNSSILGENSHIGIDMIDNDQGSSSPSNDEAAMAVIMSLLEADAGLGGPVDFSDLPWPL
Chain of cBMAL1-cCLOCK heterodimer (Q9I8T7 whole entry, the tested form may be a part, one chain of several): as above

B1: cPer2 E-box probe (dsDNA)
DNA 1: GTGTCACACGTGAGGCTTA
DNA 2: TAAGCCTCACGTGTGACAC
Q: Does B1 bind [1]?
A: Result: binds

Q: Does B1 bind [2]?
A: Result: binds

Q: Does B1 bind (cBMAL2)?
A: Result: no binding

Q: Does B1 bind (cCLOCK)?
A: Result: no binding

Q: Does B1 bind (cBMAL1)?
A: Result: no binding
